Results published in patent US20250388666A1 (BRIGHAM AND WOMEN S HOSPITAL, published 2025).
Substitutions are numbered along the chain they refer to. Names and notes keep the numbering of the source. Where two headings read alike, the source gives them in different places.

T1: CEACAM1 (Sino Biological) (human, UniProt P13688 35-428, limits assumed)
T1 construct: may be the same as CEACAM1-HIS; also called hCEACAM1; biotinylated soluble CEACAM1
T1 sequence: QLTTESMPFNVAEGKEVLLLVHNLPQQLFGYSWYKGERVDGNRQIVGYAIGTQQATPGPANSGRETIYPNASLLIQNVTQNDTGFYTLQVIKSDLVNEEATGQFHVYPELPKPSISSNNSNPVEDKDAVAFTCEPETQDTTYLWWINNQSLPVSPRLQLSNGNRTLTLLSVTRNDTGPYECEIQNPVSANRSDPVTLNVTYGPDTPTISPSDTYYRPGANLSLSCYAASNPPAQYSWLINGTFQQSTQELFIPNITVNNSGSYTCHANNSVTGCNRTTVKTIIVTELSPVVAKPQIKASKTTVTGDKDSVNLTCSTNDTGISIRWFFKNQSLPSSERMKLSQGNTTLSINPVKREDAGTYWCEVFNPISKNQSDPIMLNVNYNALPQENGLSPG

T2: CEACAM3 (Sino Biological) (human, UniProt P40198 35-155, limits assumed)
T2 construct: also called hCEACAM3
T2 sequence (looked up): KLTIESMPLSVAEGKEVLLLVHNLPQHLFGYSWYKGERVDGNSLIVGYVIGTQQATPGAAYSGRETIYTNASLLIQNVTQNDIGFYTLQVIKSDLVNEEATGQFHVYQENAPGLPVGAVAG

T3: CEACAM6 (Sino Biological) (human, UniProt P40199 35-320)
T3 construct: also called hCEACAM6
T3 sequence (looked up): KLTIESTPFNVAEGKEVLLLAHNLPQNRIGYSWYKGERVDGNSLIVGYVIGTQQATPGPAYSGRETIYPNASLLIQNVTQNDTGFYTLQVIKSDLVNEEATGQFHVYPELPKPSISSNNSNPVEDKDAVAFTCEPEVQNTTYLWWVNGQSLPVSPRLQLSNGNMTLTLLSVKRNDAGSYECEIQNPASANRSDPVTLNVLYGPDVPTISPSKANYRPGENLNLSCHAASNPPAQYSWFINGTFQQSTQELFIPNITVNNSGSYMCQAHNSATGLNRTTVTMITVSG

T4: CEACAM6 on transfected HeLa cells (UniProt P40199 35-320, limits assumed)
T4 construct: whole, on cells; also called C6
T4 sequence (looked up): T3 sequence (looked up)

T5: CEACAM1 on transfected HeLa cells (Homo sapiens (Human), UniProt P13688 35-526)
T5 construct: also called C1
T5 sequence: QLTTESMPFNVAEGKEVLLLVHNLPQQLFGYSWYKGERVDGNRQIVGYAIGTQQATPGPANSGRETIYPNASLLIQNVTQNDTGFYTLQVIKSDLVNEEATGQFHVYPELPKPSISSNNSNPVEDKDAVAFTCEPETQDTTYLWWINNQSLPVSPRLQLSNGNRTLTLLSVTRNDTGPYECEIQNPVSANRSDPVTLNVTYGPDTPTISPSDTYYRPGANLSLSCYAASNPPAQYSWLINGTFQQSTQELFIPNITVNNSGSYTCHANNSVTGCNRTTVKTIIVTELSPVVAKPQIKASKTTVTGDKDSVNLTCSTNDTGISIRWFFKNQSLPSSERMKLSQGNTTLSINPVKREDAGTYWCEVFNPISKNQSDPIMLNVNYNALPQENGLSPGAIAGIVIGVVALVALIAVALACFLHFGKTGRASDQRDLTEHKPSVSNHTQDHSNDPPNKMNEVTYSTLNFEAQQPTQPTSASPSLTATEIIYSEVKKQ

T6: CEACAM1-HIS (Sino Biologics Inc.) (Homo sapiens (Human), UniProt P13688 35-428)
T6 construct: bought; not shown: His tag
T6 sequence: T1 sequence

T7: human GST-CEACAM1 (human, UniProt P13688 35-141, limits assumed)
T7 construct: printed both as GST-CEACAM1 and CEACAM1-GST; also called human CEACAM1-GST protein; hCEACAM1-GST; not shown: GST tag
T7 sequence: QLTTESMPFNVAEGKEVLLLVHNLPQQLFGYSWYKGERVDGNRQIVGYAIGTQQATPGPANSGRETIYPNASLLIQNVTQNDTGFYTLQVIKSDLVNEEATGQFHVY

B1: He17/L16 (antibody, IgG4, V domains shown)
VH: EVQLLESGGGLVQPGGSLRLSCAASGFSFSDYYLYWVRQAPGKGLEWVATISVGGGQTSYADSVKGRFTISRDNSKNTLYLQMNSLRAEDTAMYYCTRARTYGPAWFAYWGQGTLVTVSS
VL: DIVMTQSPDSLAVSLGERATINCKSSQSLLNSANQKNYLAWYQQKPGQPPKLLIYFASTRESGVPDRFSGSGSGTDFTLTISSLQAEDVAVYYCQSHYPYPFTFGGGTKVEIK
notes: IgG4 S241P, kappa; also called 17 / 16
B2: He4/L16 (antibody, IgG4, V domains shown)
VH: B1 VH with R100L, T101Y
VL: B1 VL
notes: IgG4 S241P, kappa; also called He4 / 16
B3: He14/L1 (antibody, IgG4, V domains shown)
VH: B1 VH with A99G, R100L, T101Y, A105S, F107V
VL: B1 VL with Y100F, P101Y, F102Y
notes: IgG4 S241P, kappa; also called He14 / 1
B4: VH1/Vκ4 (antibody, IgG4, V domains shown)
VH: B1 VH with Q57N, A61P, A99G, R100L, T101Y
VL: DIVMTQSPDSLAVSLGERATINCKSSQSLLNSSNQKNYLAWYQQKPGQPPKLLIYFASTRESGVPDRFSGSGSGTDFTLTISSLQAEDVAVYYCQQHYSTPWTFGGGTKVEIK
notes: IgG4 (S241P), kappa; also called VH1/VK4

Key:
[1] = target: T1, CEACAM1 (Sino Biological); experiment: SPR single-cycle
Outline: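 Humanized affinity-matured IgGs from crude supernatants captured on Protein A to ~100 RU, with CEACAM1 analyte injected at 25–100 nM (three-point, two-fold) in HBS-P+ without regeneration. 200 s association per injection, 300 s single dissociation; reference-channel and blank subtracted.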

[2] = target: T1, CEACAM1 (Sino Biological); experiment: SPR multi-cycle, IgG on Protein A
Procedure: Multi-cycle kinetics analysis was performed on the twelve lead antibodies using a Biacore T200 instrument running Biacore T200 Evaluation Software V3.0.1 (Uppsala, Sweden) to establish an accurate affinity for CEACAM1. The purified antibodies were diluted to a concentration of […] in HBS-P+. At the start of each cycle, each antibody was captured on the Protein A surface to give an RL of ˜100 RU. Following capture, the surface was allowed to stabilize. Kinetic data was obtained using a flow rate of […] to minimize any potential mass transfer effects. For the kinetics analysis, CEACAM1 was used. Multiple repeats of the blank ([…]) and a repeat of a single concentration of the analyte were programmed into the kinetic run in order to check the stability of both the surface and analyte over the kinetic cycles. For kinetic analysis, a two-fold dilution range was selected from 200 to 3.125 nM CEACAM1. The association phase of CEACAM1 was monitored for 275 seconds and the dissociation phase was measured for 250 seconds. Regeneration of the Protein A surface was conducted using two injections of 10 mM glycine-HCL pH 1.5 at the end of each cycle.
The signal from the reference channel Fc1 was subtracted from that of Fc2, Fc3 and Fc4 to correct for differences in non-specific binding to a reference surface, and a global Rmax parameter was used in the 1-to-1 binding model. The relative KD was calculated by dividing the KD of the RSB02 Parent by that of the humanized and affinity matured variants on the same chip.

[3] = target: T2, CEACAM3 (Sino Biological); experiment: binding ELISA on plate-coated CEACAM (0.5 µg/mL); antibody at 1.67, 0.062 and 0.0069 µg/mL; signal as % of parent IgG on CEACAM1 at 1.67 µg/mL on the same plate
[4] = target: T3, CEACAM6 (Sino Biological); experiment: as above
[5] = target: T2, CEACAM3 (Sino Biological); experiment: as above; remark: listed apart in the source
[6] = target: T3, CEACAM6 (Sino Biological); experiment: as above; remark: listed apart in the source
[7] = target: T4, CEACAM6 on transfected HeLa cells; experiment: flow cytometry, transfected HeLa
Procedure: (§1) Binding selectivity of the selected antibody variants was assessed by flow cytometry using HeLa cells transfected with vectors expressing CEACAM1, CEACAM5, and CEACAM6, respectively. The resulting cells were used for flow cytometry experiments and were cultured at 37° C., 5.0% CO₂ in Dulbecco's modified Eagle's medium supplemented with 10% fetal bovine serum, penicillin (100 U/ml) and dihydrostreptomycin ([…]). Cell lines were stained with the indicated antibodies followed by fluorochrome-conjugated monoclonal antibody specific for the indicated antibody isotypes such as human IgG4 or mouse IgG1 together with viable dye (DAPI). Data were acquired with a Cytoflex flow cytometer ([…]) and analyzed with FlowJo software (TreeStar, V7.6.5 for Windows).

[8] = target: T5, CEACAM1 on transfected HeLa cells; experiment: flow cytometry, transfected HeLa
Procedure: as §1

[9] = target: T6, CEACAM1-HIS (Sino Biologics Inc.); experiment: SPR single-cycle, IgG on Protein A
Procedure: As an alternative approach to assess the binding of the antibody combinations and the control antibodies to CEACAM1, a kinetic analysis was performed on a Biacore T200 running Biacore T200 Evaluation Software V2.0.1. All experiments were run at 25° C. with HBS-P+ running buffer (pH 7.4).
In order to assess the binding of all Composite Human Antibody™ variants, single cycle kinetic analysis was performed on the supernatants of all the transiently transfected HEK EBNA cells. Purified chimeric antibody and purified chimeric antibody spiked into HEK EBNA media were used as positive controls. Supernatants were diluted in HBS-P+ to a concentration of 1 μg/mL (as determined by an IgG quantitation ELISA). At the start of each cycle, antibodies were loaded onto Fc2, Fc3 and Fc4 of a Protein A chip and captured at a flow rate of 8 μL/min to give an RU of ˜100. The surface was then allowed to stabilize. Single cycle kinetic data was obtained at a flow rate of […] to minimize any potential mass transfer effects. Multiple repeats of the chimeric antibody were performed to check the stability of the surface and analyte over the kinetic cycles. The signal from the reference channel Fc1 (no antibody) was subtracted from that of Fc2, Fc3 and Fc4 to correct for differences in non-specific binding to a reference surface. A 5 point 2-fold dilution range from 3.125 to 50 nM CEACAM1 without regeneration between each concentration was used. The association phase for the 5 injections of increasing concentrations of CEACAM1 was monitored for 150 seconds and a single dissociation phase was measured for 150 seconds following the last injection of CEACAM1. Regeneration of the Protein A was conducted using 2 injections of 10 mM glycine-HCL pH 1.5 followed by a stabilization period of 500 seconds.
In the raw sensorgrams for the single cycle kinetics, the signal from each antibody blank run (no CEACAM1) was subtracted to correct for differences in surface stability.

human GST-CEACAM1 = target: T7, human GST-CEACAM1; experiment: competition ELISA vs murine parent antibody
Procedure: The binding of the purified chimeric antibody to human CEACAM1 was assessed in a competition ELISA assay. Nunc Immuno MaxiSorp 96 well flat bottom microtitre plates were pre-coated with 1 μg/ml human GST-CEACAM1 in 1×PBS, overnight at 4° C. The following day the plates were blocked for 1 hour at room temperature with 2% BSA/PBS before washing 2× with PBS/0.05% Tween 20 pH 7.4.
The binding of the purified antibodies to human CEACAM1 were assessed in a competition ELISA assay as described above. The ability of each variant to compete against the murine parental antibody for binding to the GST-CEACAM1 was compared to that of the chimeric antibody (VH0/Vκ0), which was included on each plate.

Binder | Kd [1] [nM] | fold better than Parent (KD) [1] [fold] | Kd [2] [nM] | koff [2] [s⁻¹] | kon [2] [M⁻¹ s⁻¹] | relative KD to Parent [2] [ratio] | binding result [3] | binding result [4] | binding result [5] | binding result [6] | relative fluorescence intensity [7] | relative fluorescence intensity [8] | Kd [9] [nM] | relative KD to chimeric parental antibody [9] [ratio] | average relative IC50 (normalized to chimeric antibody) (human GST-CEACAM1) [ratio]
B1 | 67 | 2.36 | 25.8 | 0.00795 | 308000 | 3.31 | no binding (tested: 1.67 µg/mL) | no binding (tested: 1.67 µg/mL) | – | – | – | – | – | – | –
B2 | 52 | 3.04 | 38.9 | 0.00146 | 37500 | 3.16 | no binding (tested: 1.67 µg/mL) | – | – | – | – | – | – | – | –
B3 | 69 | 2.3 | 67.3 | 0.00724 | 108000 | 1.83 | – | – | no binding (tested: 1.67 µg/mL) | no binding (tested: 1.67 µg/mL) | – | – | – | – | –
B4 | – | – | – | – | – | – | – | – | – | – | 1.19 | 81.1 | 143 | 3.3 | 4.4
